From patent US20220372093A1 (CUE BIOPHARMA, published 2022)

T1: TGF-β3 (Homo sapiens, UniProt P10600)
T1 construct: also called transforming growth factor beta 3
T1 sequence (TGF-β3 polypeptide, looked up): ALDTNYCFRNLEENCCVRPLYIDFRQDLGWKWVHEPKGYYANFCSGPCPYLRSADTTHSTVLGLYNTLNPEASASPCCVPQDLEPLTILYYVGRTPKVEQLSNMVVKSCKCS


Assays:
TGF-β3 = target: T1, TGF-β3; assay: not stated on the sheet; drawn table of Kd of TβRII variants (paragraph 345 cites Groppe et al. 2008 and De Crescenzo et al. 2006)
TGF-β1 = target: T2, TGF-β1 (Homo sapiens, UniProt P01137); assay: as above
T2 construct: also called transforming growth factor beta 1
T2 sequence (P01137 279-390 limits assumed): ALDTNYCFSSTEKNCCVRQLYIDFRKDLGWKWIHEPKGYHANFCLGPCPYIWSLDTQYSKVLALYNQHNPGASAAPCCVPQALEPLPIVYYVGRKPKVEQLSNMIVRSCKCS

Binder | Kd (TGF-β3) | Kd (TGF-β1)
Δ14 (receptor, also called TβRII Δ14 (N-terminal aas 1-14 deleted)) TβRII polypeptide: VTDNNGAVKFPQLCKFCDVRFSTCDNQKSCMSNCSITSICEKPQEVCVAVWRKNDENITLETVCHDPKLPYHDFILEDAASPKCIMKEKKKPGETFFMCSCSSDECNDNIIFSEEYNTSNPD | 680 nM | 320 nM
D32A (receptor, also called TβRII D32A) TβRII polypeptide: IPPHVQKSVNNDMIVTDNNGAVKFPQLCKFCAVRFSTCDNQKSCMSNCSITSICEKPQEVCVAVWRKNDENITLETVCHDPKLPYHDFILEDAASPKCIMKEKKKPGETFFMCSCSSDECNDNIIFSEEYNTSNPDLLLVIFQ |  | 3520 nM
D32N (receptor, also called TβRII D32N) TβRII polypeptide: IPPHVQKSVNNDMIVTDNNGAVKFPQLCKFCNVRFSTCDNQKSCMSNCSITSICEKPQEVCVAVWRKNDENITLETVCHDPKLPYHDFILEDAASPKCIMKEKKKPGETFFMCSCSSDECNDNIIFSEEYNTSNPDLLLVIFQ |  | 5900 nM
D118A (receptor, also called TβRII D118A) TβRII polypeptide: IPPHVQKSVNNDMIVTDNNGAVKFPQLCKFCDVRFSTCDNQKSCMSNCSITSICEKPQEVCVAVWRKNDENITLETVCHDPKLPYHDFILEDAASPKCIMKEKKKPGETFFMCSCSSAECNDNIIFSEEYNTSNPDLLLVIFQ |  | 1510 nM
E55A (receptor, also called TβRII E55A) TβRII polypeptide: IPPHVQKSVNNDMIVTDNNGAVKFPQLCKFCDVRFSTCDNQKSCMSNCSITSICAKPQEVCVAVWRKNDENITLETVCHDPKLPYHDFILEDAASPKCIMKEKKKPGETFFMCSCSSDECNDNIIFSEEYNTSNPDLLLVIFQ |  | 2990 nM
E119A (receptor, also called TβRII E119A) TβRII polypeptide: IPPHVQKSVNNDMIVTDNNGAVKFPQLCKFCDVRFSTCDNQKSCMSNCSITSICEKPQEVCVAVWRKNDENITLETVCHDPKLPYHDFILEDAASPKCIMKEKKKPGETFFMCSCSSDACNDNIIFSEEYNTSNPDLLLVIFQ |  | 3350 nM
E119Q (receptor, also called TβRII E119Q) TβRII polypeptide: IPPHVQKSVNNDMIVTDNNGAVKFPQLCKFCDVRFSTCDNQKSCMSNCSITSICEKPQEVCVAVWRKNDENITLETVCHDPKLPYHDFILEDAASPKCIMKEKKKPGETFFMCSCSSDQCNDNIIFSEEYNTSNPDLLLVIFQ |  | 5950 nM
F30A (receptor, also called TβRII F30A) TβRII polypeptide: IPPHVQKSVNNDMIVTDNNGAVKFPQLCKACDVRFSTCDNQKSCMSNCSITSICEKPQEVCVAVWRKNDENITLETVCHDPKLPYHDFILEDAASPKCIMKEKKKPGETFFMCSCSSDECNDNIIFSEEYNTSNPDLLLVIFQ |  | 44000 nM
I50A (receptor, also called TβRII I50A) TβRII polypeptide: IPPHVQKSVNNDMIVTDNNGAVKFPQLCKFCDVRFSTCDNQKSCMSNCSATSICEKPQEVCVAVWRKNDENITLETVCHDPKLPYHDFILEDAASPKCIMKEKKKPGETFFMCSCSSDECNDNIIFSEEYNTSNPDLLLVIFQ |  | 7960 nM
I53A (receptor, also called TβRII I53A) TβRII polypeptide: IPPHVQKSVNNDMIVTDNNGAVKFPQLCKFCDVRFSTCDNQKSCMSNCSITSACEKPQEVCVAVWRKNDENITLETVCHDPKLPYHDFILEDAASPKCIMKEKKKPGETFFMCSCSSDECNDNIIFSEEYNTSNPDLLLVIFQ |  | 2490 nM
L27A (receptor, also called TβRII L27A) TβRII polypeptide: IPPHVQKSVNNDMIVTDNNGAVKFPQACKFCDVRFSTCDNQKSCMSNCSITSICEKPQEVCVAVWRKNDENITLETVCHDPKLPYHDFILEDAASPKCIMKEKKKPGETFFMCSCSSDECNDNIIFSEEYNTSNPDLLLVIFQ |  | 7970 nM
S49A (receptor, also called TβRII S49A) TβRII polypeptide: IPPHVQKSVNNDMIVTDNNGAVKFPQLCKFCDVRFSTCDNQKSCMSNCAITSICEKPQEVCVAVWRKNDENITLETVCHDPKLPYHDFILEDAASPKCIMKEKKKPGETFFMCSCSSDECNDNIIFSEEYNTSNPDLLLVIFQ |  | 790 nM
S52A (receptor, also called TβRII S52A) TβRII polypeptide: IPPHVQKSVNNDMIVTDNNGAVKFPQLCKFCDVRFSTCDNQKSCMSNCSITAICEKPQEVCVAVWRKNDENITLETVCHDPKLPYHDFILEDAASPKCIMKEKKKPGETFFMCSCSSDECNDNIIFSEEYNTSNPDLLLVIFQ |  | 600 nM
S52L (receptor, also called TβRII S52L) TβRII polypeptide: IPPHVQKSVNNDMIVTDNNGAVKFPQLCKFCDVRFSTCDNQKSCMSNCSITLICEKPQEVCVAVWRKNDENITLETVCHDPKLPYHDFILEDAASPKCIMKEKKKPGETFFMCSCSSDECNDNIIFSEEYNTSNPDLLLVIFQ |  | 154000 nM
T51A (receptor, also called TβRII T51A) TβRII polypeptide: IPPHVQKSVNNDMIVTDNNGAVKFPQLCKFCDVRFSTCDNQKSCMSNCSIASICEKPQEVCVAVWRKNDENITLETVCHDPKLPYHDFILEDAASPKCIMKEKKKPGETFFMCSCSSDECNDNIIFSEEYNTSNPDLLLVIFQ |  | 2970 nM
V77A (receptor, also called TβRII V77A) TβRII polypeptide: IPPHVQKSVNNDMIVTDNNGAVKFPQLCKFCDVRFSTCDNQKSCMSNCSITSICEKPQEVCVAVWRKNDENITLETACHDPKLPYHDFILEDAASPKCIMKEKKKPGETFFMCSCSSDECNDNIIFSEEYNTSNPDLLLVIFQ |  | 690 nM
